Common to all, as to assay: pull-down; GST fusion protein immobilised on glutathione-Sepharose beads (20 μl), incubated with 20 μg of purified His-tagged protein in 200 μl binding buffer (1× PBS, 1 mg/ml ovalbumin, 10 mM β-mercaptoethanol, 0.1% IGPAL-30), 1 hour at room temperature; four washes; anti-His blot
Settings in all cases: both partners purified

One experiment addresses T1, His-Sec15^1–300 (C. albicans, UniProt A0A1D8PM29 1-300).
T1 construct: Sec15, exocyst component of Candida albicans, amino acids 1 to 300; Subcloned into pET21-a (Novagen); also called His6-Sec15^1–300; source: E. coli, purified
T1 sequence (looked up): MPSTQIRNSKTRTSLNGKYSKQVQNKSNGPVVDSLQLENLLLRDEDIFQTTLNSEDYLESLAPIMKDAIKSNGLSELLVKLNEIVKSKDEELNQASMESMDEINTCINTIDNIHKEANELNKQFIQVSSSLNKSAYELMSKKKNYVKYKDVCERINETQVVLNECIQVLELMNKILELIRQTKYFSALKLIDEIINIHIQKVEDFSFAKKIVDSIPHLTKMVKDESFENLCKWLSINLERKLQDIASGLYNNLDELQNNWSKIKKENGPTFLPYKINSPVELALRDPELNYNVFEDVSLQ

The next experiment concerns the target T2, His-Sec15^1–549 (C. albicans, UniProt A0A1D8PM29 1-549).
T2 construct: Sec15, exocyst component of Candida albicans, amino acids 1 to 549; Subcloned into pET21-a (Novagen); also called His6-Sec15^1–549; source: E. coli, purified
T2 sequence (looked up): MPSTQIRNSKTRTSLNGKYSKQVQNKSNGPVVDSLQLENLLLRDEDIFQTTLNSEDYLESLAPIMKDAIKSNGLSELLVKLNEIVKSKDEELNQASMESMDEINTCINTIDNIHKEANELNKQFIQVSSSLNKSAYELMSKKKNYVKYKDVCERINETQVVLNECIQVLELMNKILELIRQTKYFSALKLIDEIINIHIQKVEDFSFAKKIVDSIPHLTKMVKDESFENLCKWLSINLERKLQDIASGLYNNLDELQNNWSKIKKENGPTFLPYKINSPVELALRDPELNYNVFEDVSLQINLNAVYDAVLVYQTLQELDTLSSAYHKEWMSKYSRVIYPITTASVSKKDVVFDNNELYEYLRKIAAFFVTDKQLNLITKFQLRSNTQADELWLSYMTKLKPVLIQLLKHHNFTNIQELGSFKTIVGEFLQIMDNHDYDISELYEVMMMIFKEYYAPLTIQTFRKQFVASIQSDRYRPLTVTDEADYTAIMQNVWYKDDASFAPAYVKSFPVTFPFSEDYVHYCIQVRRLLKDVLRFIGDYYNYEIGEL

The next experiment concerns the target T3, GST-Sec15^550–892 (C. albicans, UniProt A0A1D8PM29 550-892).
T3 construct: The methods say only that similar strategies as for Sec15 and Rsr1 were used; source: E. coli, purified
T3 sequence (looked up): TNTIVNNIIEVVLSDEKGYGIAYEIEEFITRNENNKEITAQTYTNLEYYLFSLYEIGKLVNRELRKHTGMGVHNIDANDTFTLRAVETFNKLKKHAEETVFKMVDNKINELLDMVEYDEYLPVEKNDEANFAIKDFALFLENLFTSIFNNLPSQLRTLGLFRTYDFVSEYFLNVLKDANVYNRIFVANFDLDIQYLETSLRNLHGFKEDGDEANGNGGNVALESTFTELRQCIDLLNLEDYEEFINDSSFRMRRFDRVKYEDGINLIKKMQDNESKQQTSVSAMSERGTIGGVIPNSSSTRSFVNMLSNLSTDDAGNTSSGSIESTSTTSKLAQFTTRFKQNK

B1: GST-Rsr1^K16N (GDP-locked form of Rsr1) (natural protein)
chain: MRDYKVVVLGAGGVGNSSITVQFVQGVYVESYDPTIEDSYRKQIEVDGRACDLEILDTAGVAQFTAMRELYIKSGKGFLLVYSVTDENSLKELLALREQVLRIKDSDNVPMVLVGNKCDLEDDRVLSIEDGVKVSQDWGLVPFYETSAMYKTNVDEAFIDVVRQIMRKEAAISAEKKQQKELQKQQQQQQQEQDAEGQQQQQKSGKSKSSATQKDATADGQTDVNARLKQSINDHPKSSSGSKFCTII
notes: Rsr1, Ras-family GTPase of Candida albicans; GDP-locked mutant K16N; Made with the pGEX vector system (Amersham Biosciences), which normally places GST at the N-terminus; also called Rsr1-GDP; recombinant Rsr1^K16N
Regarding B1, the binding result in the experiment with His-Sec15^1–300 and with His-Sec15^1–549 was “binds” throughout.

B2: His-Bem1^1–300 (domain or fragment, C. albicans, UniProt A0A1D8PLB6 1-300, looked up)
chain: MIKTFRKSKRSSSNSSSPKKTISRVSSTSSNQTSHDGILQSPKKVIRALYDYEPQGPGELKFFKGDFFHVLDDVDDELHKEAEANGWIEATNPMTQLKGMVPISYFEIFDRSRPTVTASSNSFTNSIDIQHQHQHQQGIHNGTGNRNLNQTLYAVTLYEFKAERDDELDIMPNENLIICAHHDYEWFIAKPINRLGGPGLVPVSYVKIIDLLNPNSHYTSIDTSRRSQVIQVINGFNIPTVEQWKNQTAKYQASTIPLGSISGSGTPPTSANSQYFDNHTMTSNRSSSGSSISIVEASVD
notes: Bem1, polarity determinant of Candida albicans, N-terminal 300 amino acids; also called His6-Bem1^1–300; N-terminal 300 amino acids of Bem1; source: similar strategies as for the E. coli proteins
Turning to B2, the binding result with GST-Sec15^550–892 is given as “binds”.
